Measurements reported in patent US6403561.

Tested on: non-sulphated CCK-8 (Asp-Tyr-Met-Gly-Trp-Met-Asp-Phe-NH2)

membrane-bound tripeptidylpeptidase II purified from rat brain (cerebral cortex) membranes, sequence (chain, as listed by the source): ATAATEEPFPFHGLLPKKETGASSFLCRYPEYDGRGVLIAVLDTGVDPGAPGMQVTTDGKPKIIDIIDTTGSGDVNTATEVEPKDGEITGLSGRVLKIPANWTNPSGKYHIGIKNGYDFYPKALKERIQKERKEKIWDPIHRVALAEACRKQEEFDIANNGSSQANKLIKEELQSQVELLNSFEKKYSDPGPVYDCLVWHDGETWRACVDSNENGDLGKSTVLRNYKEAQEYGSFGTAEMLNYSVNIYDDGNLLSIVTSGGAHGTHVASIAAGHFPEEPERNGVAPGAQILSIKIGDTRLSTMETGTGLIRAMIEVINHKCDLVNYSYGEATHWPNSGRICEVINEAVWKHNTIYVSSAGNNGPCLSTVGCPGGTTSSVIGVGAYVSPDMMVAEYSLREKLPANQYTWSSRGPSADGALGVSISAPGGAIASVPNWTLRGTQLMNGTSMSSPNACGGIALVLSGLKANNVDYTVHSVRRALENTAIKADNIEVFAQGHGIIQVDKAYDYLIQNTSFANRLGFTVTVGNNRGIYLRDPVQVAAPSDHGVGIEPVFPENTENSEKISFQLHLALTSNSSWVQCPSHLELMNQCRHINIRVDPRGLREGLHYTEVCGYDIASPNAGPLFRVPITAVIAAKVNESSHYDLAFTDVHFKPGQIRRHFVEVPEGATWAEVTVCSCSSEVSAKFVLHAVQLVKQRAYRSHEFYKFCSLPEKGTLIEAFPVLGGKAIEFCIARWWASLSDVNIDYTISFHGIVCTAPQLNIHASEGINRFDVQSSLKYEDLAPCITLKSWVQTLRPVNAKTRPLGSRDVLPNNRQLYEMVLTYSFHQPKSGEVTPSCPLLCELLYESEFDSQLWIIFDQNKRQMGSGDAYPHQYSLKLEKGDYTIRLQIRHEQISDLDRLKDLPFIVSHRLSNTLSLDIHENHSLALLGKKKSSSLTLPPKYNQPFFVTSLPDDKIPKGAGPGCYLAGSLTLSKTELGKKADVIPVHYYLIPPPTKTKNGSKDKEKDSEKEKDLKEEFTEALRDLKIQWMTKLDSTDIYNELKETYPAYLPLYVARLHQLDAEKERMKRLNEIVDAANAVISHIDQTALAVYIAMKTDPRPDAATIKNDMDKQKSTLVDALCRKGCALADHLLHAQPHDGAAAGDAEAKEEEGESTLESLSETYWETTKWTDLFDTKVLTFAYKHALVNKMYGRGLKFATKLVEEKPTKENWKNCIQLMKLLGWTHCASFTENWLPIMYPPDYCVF

In the case of “membrane-bound tripeptidylpeptidase II purified from rat brain (cerebral cortex) membranes”, the “hydrolysis of CCK-8 (products CCK-5 and Gly-Trp-Met measured fluorimetrically after HPLC)” value is reported as “only one enzyme is responsible for the two cleavages of the molecule CCK-8”.
